B1: His–ALFA–3C–ALDH1A1 (natural protein, human, UniProt P00352 1-501, looked up)
chain: MSSSGTPDLPVLLTDLKIQYTKIFINNEWHDSVSGKKFPVFNPATEEELCQVEEGDKEDVDKAVKAARQAFQIGSPWRTMDASERGRLLYKLADLIERDRLLLATMESMNGGKLYSNAYLNDLAGCIKTLRYCAGWADKIQGRTIPIDGNFFTYTRHEPIGVCGQIIPWNFPLVMLIWKIGPALSCGNTVVVKPAEQTPLTALHVASLIKEAGFPPGVVNIVPGYGPTAGAAISSHMDIDKVAFTGSTEVGKLIKEAAGKSNLKRVTLELGGKSPCIVLADADLDNAVEFAHHGVFYHQGQCCIAASRIFVEESIYDEFVRRSVERAKKYILGNPLTPGVTQGPQIDKEQYDKILDLIESGKKEGAKLECGGGPWGNKGYFVQPTVFSNVTDEMRIAKEEIFGPVQQIMKFKSLDDVIKRANNTFYGLSAGVFTKDIDKAITISSALQAGTVWVNCYGVVSAQCPFGGFKMSGNGRELGEYGFHEYTEVKTVTVKISQKNS
notes: retinal dehydrogenase 1 (ALDH1A1), cDNA amplified from HEK293 total cDNA; A 3C protease site stands between the tags and the protein; Heat-stressed at 50 °C for 1 h together with the chaperone; also called recombinant ALDH1A1; source: E. coli BL21(DE3) LOBSTR, purified (HisPur Cobalt Resin)
B2: His–ALFA–3C–ESD (natural protein, human, UniProt P10768 1-282, looked up)
chain: MALKQISSNKCFGGLQKVFEHDSVELNCKMKFAVYLPPKAETGKCPALYWLSGLTCTEQNFISKSGYHQSASEHGLVVIAPDTSPRGCNIKGEDESWDFGTGAGFYVDATEDPWKTNYRMYSYVTEELPQLINANFPVDPQRMSIFGHSMGGHGALICALKNPGKYKSVSAFAPICNPVLCPWGKKAFSGYLGTDQSKWKAYDATHLVKSYPGSQLDILIDQGKDDQFLLDGQLLPDNFIAACTEKKIPVVFRLQEGYDHSYYFIATFITDHIRHHAKYLNA
notes: S-formylglutathione hydrolase (ESD), cDNA amplified from HEK293 total cDNA; A 3C protease site stands between the tags and the protein; Heat-stressed at 50 °C for 1 h together with the chaperone; also called recombinant ESD; source: E. coli BL21(DE3) LOBSTR, purified (HisPur Cobalt Resin)
B3: α2M–mCherry–sfGFP–His (natural protein, human (cDNA from HepG2), UniProt P01023 24-1474, looked up)
chain: SVSGKPQYMVLVPSLLHTETTEKGCVLLSYLNETVTVSASLESVRGNRSLFTDLEAENDVLHCVAFAVPKSSSNEEVMFLTVQVKGPTQEFKKRTTVMVKNEDSLVFVQTDKSIYKPGQTVKFRVVSMDENFHPLNELIPLVYIQDPKGNRIAQWQSFQLEGGLKQFSFPLSSEPFQGSYKVVVQKKSGGRTEHPFTVEEFVLPKFEVQVTVPKIITILEEEMNVSVCGLYTYGKPVPGHVTVSICRKYSDASDCHGEDSQAFCEKFSGQLNSHGCFYQQVKTKVFQLKRKEYEMKLHTEAQIQEEGTVVELTGRQSSEITRTITKLSFVKVDSHFRQGIPFFGQVRLVDGKGVPIPNKVIFIRGNEANYYSNATTDEHGLVQFSINTTNVMGTSLTVRVNYKDRSPCYGYQWVSEEHEEAHHTAYLVFSPSKSFVHLEPMSHELPCGHTQTVQAHYILNGGTLLGLKKLSFYYLIMAKGGIVRTGTHGLLVKQEDMKGHFSISIPVKSDIAPVARLLIYAVLPTGDVIGDSAKYDVENCLANKVDLSFSPSQSLPASHAHLRVTAAPQSVCALRAVDQSVLLMKPDAELSASSVYNLLPEKDLTGFPGPLNDQDNEDCINRHNVYINGITYTPVSSTNEKDMYSFLEDMGLKAFTNSKIRKPKMCPQLQQYEMHGPEGLRVGFYESDVMGRGHARLVHVEEPHTETVRKYFPETWIWDLVVVNSAGVAEVGVTVPDTITEWKAGAFCLSEDAGLGISSTASLRAFQPFFVELTMPYSVIRGEAFTLKATVLNYLPKCIRVSVQLEASPAFLAVPVEKEQAPHCICANGRQTVSWAVTPKSLGNVNFTVSAEALESQELCGTEVPSVPEHGRKDTVIKPLLVEPEGLEKETTFNSLLCPSGGEVSEELSLKLPPNVVEESARASVSVLGDILGSAMQNTQNLLQMPYGCGEQNMVLFAPNIYVLDYLNETQQLTPEIKSKAIGYLNTGYQRQLNYKHYDGSYSTFGERYGRNQGNTWLTAFVLKTFAQARAYIFIDEAHITQALIWLSQRQKDNGCFRSSGSLLNNAIKGGVEDEVTLSAYITIALLEIPLTVTHPVVRNALFCLESAWKTAQEGDHGSHVYTKALLAYAFALAGNQDKRKEVLKSLNEEAVKKDNSVHWERPQKPKAPVGHFYEPQAPSAEVEMTSYVLLAYLTAQPAPTSEDLTSATNIVKWITKQQNAQGGFSSTQDTVVALHALSKYGAATFTRTGKAAQVTIQSSGTFSSKFQVDNNNRLLLQQVSLPELPGEYSMKVTGEGCVYLQTSLKYNILPEKEEFPFALGVQTLPQTCDEPKAHTSFQISLSVSYTGSRSASNMAIVDVKMVSGFIPLKPTVKMLERSNHVSRTEVSSNHVLIYLDKVSNQTLSLFFTVLQDVPVRDLKPAIVKVYDYYETDEFAIAEYNAPCSKDLGNA
notes: alpha 2-macroglobulin (α2M), cDNA amplified from HepG2 total cDNA; Tetramer with an intact thiol ester by native-PAGE and heat fragmentation; also called α2M–RG; α2M–RFP–GFP–His; source: purified from conditioned medium (Ni–NTA); not shown: mCherry, C-terminal, kept; sfGFP, C-terminal, kept

Columns and labels:
[1] = molecular target: B3; test: co-IP; purified α2M–RG (0.1 μM) mixed with purified substrate, pre-incubated at 50 °C (heat stress) or 4 °C for 1 h; anti-GFP (GFP-nanobody) sepharose 2 h at 4 °C, washed four times with PBS; details: both partners purified
[2] = molecular target: the molecule itself; test: native gel or EMSA; Native-PAGE of purified α2M–RG on NuPAGE 3 to 8% Tris–acetate gels, Tris–glycine running buffer pH 8.3, with or without methylamine; migrated to ~920 kDa

Row | binding result [1] | Binder | stoichiometry N [2]
1 | binds | B1 | –
2 | binds | B2 | –
3 | – | B3 | 4
